# Experimental data reported in patent US20160282364.
# Tested on: insulin
substance,measurement,value
recombinant human IDE42-1019 (R&D Systems),"degradation of insulin by IDE (HTRF insulin assay, 0.4 µg/mL IDE, 10 ng/mL insulin, 30° C., 15 min)",˜75% degradation of insulin
